# What was measured:
# Type in all cases: cell-based, human
# HIF-2 alpha protein = assay: Western blot analysis of HIF-2 alpha protein in cotransfected HEK/293 cells; settings: HEK/293, HIF-2 alpha specific polyclonal antibody
# Procedure: HIF-prolyl hydroxylase activity of PH-2 was examined in a cellular co-transfection assay in HEK/293 cells. In a typical experiment, cells were seeded at a density of 2×10^4 cells per well in 96-well tissue culture plates (Greiner, Germany) and grown in DMEM F12 tissue culture medium (Gibco) supplemented with 10% fetal calf serum (PAA) and antibiotics for 24 hours at 37° C. in a humidified tissue culture incubator (Heraeus, Germany) in a 5% CO2 atmosphere. Plasmid DNA was introduced into the HEK/293 cells by use of Lipofectamin reagent (Gibco) according to the manufacturer's instructions. […]
# HIF-2 alpha = assay: Cotransfection reporter assay (HIF-RE2-luc) with HIF-2 alpha in HEK/293 cells; settings: for activity of HIF-2 alpha on reporter: HEK/293, hydroxylase and HIF-2 alpha cotransfected in a ratio 10:1; for activity on HIF-2 alpha compared with activity on HIF-1 alpha: HEK/293 cotransfection reporter assay
# Procedure: (§1) HIF-prolyl hydroxylase activity of PH-2 was examined in a cellular co-transfection assay in HEK/293 cells. In a typical experiment, cells were seeded at a density of 2×10^4 cells per well in 96-well tissue culture plates (Greiner, Germany) and grown in DMEM F12 tissue culture medium (Gibco) supplemented with 10% fetal calf serum (PAA) and antibiotics for 24 hours at 37° C. in a humidified tissue culture incubator (Heraeus, Germany) in a 5% CO2 atmosphere. Plasmid DNA was introduced into the HEK/293 cells by use of Lipofectamin reagent (Gibco) according to the manufacturer's instructions.
# (§2) The following expression plasmids were used in transfection experiments. pCDNA3 cloning vectors were obtained from Invitrogen: • HIF-1alpha pcDNA3 containing the coding sequence of mouse hypoxia inducible factor-1 alpha (Gene bank accession number: NM_010431). • HIF-1 alpha P402G pcDNA3 containing the coding sequence of mouse hypoxia inducible factor-1 alpha in which the HIF proline hydroxylase sensitive proline residue at position 402 was replaced with glycine by site-directed mutagenesis using QuickChange™ XL Site-Directed Mutagenesis Kit, Stratagene. • HIF-1 alpha P577G pcDNA3 containing the coding sequence of mouse hypoxia inducible factor-1alpha in which the HIF proline hydroxylase sensitive proline residue at position 577 (the ortholog of P564 of human HIF) was replaced with glycine by site-directed mutagenesis using QuickChange™ XL Site-Directed Mutagenesis Kit, Stratagene. • HIF-1 alpha P402/577G pcDNA3 containing the coding sequence of mouse hypoxia inducible factor-1alpha in which both HIF proline hydroxylase sensitive proline residues at positions 402 and 577 were replaced with glycine by site-directed mutagenesis using QuickChange™ XL Site-Directed Mutagenesis Kit, Stratagene. • HIF-2 alpha pcDNA3 containing the coding sequence of mouse hypoxia inducible factor-2 alpha (Gene bank accession number: AF045160). • HIF-RE2-luc, HIF reporter construct (constructed in pGL3, Promega) consisting of a minimal promoter containing a tandem of hypoxia responsible elements (FIG. 5, bold underlined) and the CMV promoter TATA box (FIG. 5, underlined) upstream of the firefly luciferase gene. • pRLTK (Promega) containing the coding sequence of renilla luciferase, used as transfection standard. • PH-alpha(I) pcDNA3 containing the coding sequence of human prolyl 4-hydroxylase alpha (I) (Gene bank accession number: U14620). • EGLN3 pcDNA3 containing the coding sequence of a recently identified human HIF-prolyl-hydroxylase (Epstein et al., Cell 107, 43-54, 2001; Bruick & McKnight, Science 294, 1337-40, 2001; gene bank accession number: XM—052824). • PH-2 pcDNA3 containing the coding sequence from SEQ ID NO:3.
# (§3) In a typical experiment, 30 ng of HIF-RE2 pGL3 luciferase reporter plasmid and 10 ng pRLTK internal standard were cotransfected with prolyl-4 hydroxylase and HIF pCDNA3 expression plasmids. The amount of transfected pCDNA3 plasmids was kept constant at 60 ng by filling up with pCDNA3 empty cloning vector. Twenty-four hours later, luciferase activity was measured in a lumibox equipped with a Hamamatsu camera (Hamamatsu Photonics, Japan) using after lysis of cells in luciferase buffer.
# HIF-1 alpha = assay: Cotransfection reporter assay (HIF-RE2-luc) with HIF-1 alpha in HEK/293 cells; settings: for sensitivity of double mutant HIF-1 alpha (P402/577G) activity to cotransfected hydroxylase: HEK/293, double mutant, constitutively active; for sensitivity of HIF-1 alpha P402G mutant to cotransfected hydroxylase, versus wild type HIF-1 alpha: HEK/293, glycine substituted for P402; for sensitivity of HIF-1 alpha P577 mutant to cotransfected hydroxylase: HEK/293, mutation of P577; for reduction of transactivation activity of cotransfected HIF-1 alpha on hypoxia responsive reporter gene construct: HEK/293, wild type HIF-1 alpha, equal amounts of each plasmid transfected
# Procedure: as §1, §2, §3
# A luciferase reporter construct in which a tandem of hypoxia responsive elements linked to a minimal promoter drive firefly luciferase was cotransfected with HIF-1 alpha and HIF-2 alpha, respectively, and with the candidate HIF prolyl 4-hydroxylases EGLN3 and PH-2, respectively.
# [1] = HEK/293, equal amounts of each plasmid transfected
Molecule,HIF-2 alpha protein by Western blot (HIF-2 alpha protein),activity of HIF-2 alpha on the hypoxia responsive reporter gene construct (HIF-2 alpha; [1]),activity of HIF-2 alpha on reporter (HIF-2 alpha),activity on HIF-2 alpha compared with activity on HIF-1 alpha (HIF-2 alpha),sensitivity of double mutant HIF-1 alpha (P402/577G) activity to cotransfected hydroxylase (HIF-1 alpha),"sensitivity of HIF-1 alpha P402G mutant to cotransfected hydroxylase, versus wild type HIF-1 alpha (HIF-1 alpha)",sensitivity of HIF-1 alpha P577 mutant to cotransfected hydroxylase (HIF-1 alpha),reduction of transactivation activity of cotransfected HIF-1 alpha on hypoxia responsive reporter gene construct (HIF-1 alpha),activity on HIF-2 alpha relative to EGLN3 (HIF-2 alpha; [1])
"EGLN3: recently identified human HIF-prolyl-hydroxylase (gene bank accession number XM—052824), expressed from EGLN3 pcDNA3 (protein) MPLGHIMRLDLEKIALEYIVPCLHEVGFCYLDNFLGEVVGDCVLERVKQLHCTGALRDGQLAGPRAGVSKRHLRGDQITWIGGNEEGCEAISFLLSLIDRLVLYCGSRLGKYYVKERSKAMVACYPGNGTGYVRHVDNPNGDGRCITCIYYLNKNWDAKLHGGILRIFPEGKSFIADVEPIFDRLLFFWSDRRNPHEVQPSYATRYAMTVWYFDAEERAEAKKKFRNLTRKTESALTED",disappearance,reduced,completely abolished,less active,almost completely resistant,equally sensitive,less sensitive,about 90%,–
"PH-2: novel human prolyl 4-hydroxylase, SEQ ID NO:4; expressed from PH-2 pcDNA3 containing the coding sequence from SEQ ID NO:3 (protein, listed as Homo sapiens) MAAAAVTGQRPETAAAEEASRPQWAPPDHCQAQAAAGLGDGEDAPVRPLCKPRGICSRAYFLVLMVFVHLYLGNVLALLLFVHYSNGDESSDPGPQHRAQGPGPEPTLGPLTRLEGIKVGHERKVQLVTDRDHFIRTLSLKPLLFEIPGFLTDEECRLIIHLAQMKGLQRSQILPTEEYEEAMSTMQVSQLDLFRLLDQNRDGHLQLREVLAQTRLGNGWWMTPESIQEMYAAIKADPDADGVLSLQEFSNMDLRDFHKYMRSHKAESSELVRNSHHTWLYQGEGAHHIMRAIRQRVLRLTRLSPEIVELSEPLQVVRYGEGGHYHAHVDSGPVYPETICSHTKLVANESVPFETSCRYMTVLFYLNNVTGGGETVFPVADNRTYDEMSLIQDDVDLRDTRRHCDKGNLRVKPQQGTAVFWYNYLPDGQGWVGDVDDYSLHGGCLVTRGTKWIANNWINVDPSRARQALFQQEMARLAREGGTDSQPEWALDRAYRDARVEL",disappearance,reduced,completely abolished,less active,almost completely resistant,equally sensitive,less sensitive,~80%,by a factor two less active
"PH-alpha(I): human collagen prolyl 4-hydroxylase alpha (I) (Gene bank accession number U14620), expressed from pcDNA3 (protein) HPGFFTSIGQMTDLIHTEKDLVTSLKDYIKAEEDKLEQIKKWAEKLDRLTSTATKDPEGFVGHPVNAFKLMKRLNTEWSELENLVLKDMSDGFISNLTIQRQYFPNDEDQVGAAKALLRLQDTYNLDTDTISKGNLPGVKHKSFLTAEDCFELGKVAYTEADYYHTELWMEQALRQLDEGEISTIDKVSVLDYLSYAVYQQGDLDKALLLTKKLLELDPEHQRANGNLKYFEYIMAKEKDVNKSASDDQSDQKTTPKKKGVAVDYLPERQKYEMLCRGEGIKMTPRRQKKLFCRYHDGNRNPKFILAPAKQEDEWDKPRIIRFHDIISDAEIEIVKDLAKPRLSRATVHDPETGKLTTAQYRVSKSAWLSGYENPVVSRINMRIQDLTGLDVSTAEELQVANYGVGGQYEPHFDFARKDEPDAFKELGTGNRIATWLFYMSDVSAGGATVFPEVGASVWPKKGTAVFWYNLFASGEGDYSTRHAACPVLVGNKWVSNKWLHERGQEFRRPCTLSELE",–,–,–,–,–,–,–,did not reduce,–

# — patent US20060110769A1, “Regulation of novel human prolyl 4-hydroxylases” (Bayer Aktiengesellschaft, priority 2001, published 2006)
